Results published in US20150329638A1 (Biogen, published 2015).

T1: rat DR6 (rat, UniProt D3ZF92 42-655)
T1 construct: Full length rat DR6 expressed on transfected HEK293 cells
T1 sequence: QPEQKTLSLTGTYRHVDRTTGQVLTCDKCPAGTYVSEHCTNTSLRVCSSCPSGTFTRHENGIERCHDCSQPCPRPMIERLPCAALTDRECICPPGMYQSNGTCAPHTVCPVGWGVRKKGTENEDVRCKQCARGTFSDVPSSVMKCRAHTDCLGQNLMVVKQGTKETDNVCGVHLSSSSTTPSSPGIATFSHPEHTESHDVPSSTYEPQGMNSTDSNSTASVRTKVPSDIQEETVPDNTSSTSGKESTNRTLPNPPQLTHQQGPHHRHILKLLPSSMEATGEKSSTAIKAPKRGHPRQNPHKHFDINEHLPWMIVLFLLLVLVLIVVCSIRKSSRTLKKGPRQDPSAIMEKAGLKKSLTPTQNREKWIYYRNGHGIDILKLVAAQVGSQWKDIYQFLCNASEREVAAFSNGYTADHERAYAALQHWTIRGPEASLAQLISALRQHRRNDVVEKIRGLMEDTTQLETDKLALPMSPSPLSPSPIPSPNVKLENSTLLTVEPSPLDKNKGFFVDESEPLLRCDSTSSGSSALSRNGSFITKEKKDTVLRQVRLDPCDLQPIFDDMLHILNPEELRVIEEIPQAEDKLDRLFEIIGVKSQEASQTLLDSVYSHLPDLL

T2: human DR6 (Death Receptor-6, TNFRSF21) (human, UniProt O75509 42-655)
T2 sequence: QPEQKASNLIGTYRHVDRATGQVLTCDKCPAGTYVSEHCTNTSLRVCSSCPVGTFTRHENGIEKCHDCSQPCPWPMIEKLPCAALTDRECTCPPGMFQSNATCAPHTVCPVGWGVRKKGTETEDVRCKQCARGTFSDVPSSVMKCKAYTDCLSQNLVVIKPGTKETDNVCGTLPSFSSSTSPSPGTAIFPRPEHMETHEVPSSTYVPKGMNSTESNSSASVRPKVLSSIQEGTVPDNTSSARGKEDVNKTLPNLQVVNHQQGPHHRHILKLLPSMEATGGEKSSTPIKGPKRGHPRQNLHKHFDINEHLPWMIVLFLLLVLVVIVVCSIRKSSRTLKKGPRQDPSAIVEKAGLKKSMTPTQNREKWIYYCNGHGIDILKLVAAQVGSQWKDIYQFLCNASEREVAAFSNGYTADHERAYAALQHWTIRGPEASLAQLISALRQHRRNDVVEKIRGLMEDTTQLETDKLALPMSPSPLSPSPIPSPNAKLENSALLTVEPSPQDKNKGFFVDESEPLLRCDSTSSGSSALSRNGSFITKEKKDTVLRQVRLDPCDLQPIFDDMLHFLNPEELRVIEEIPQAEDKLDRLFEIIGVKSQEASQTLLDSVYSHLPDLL

T3: mouse DR6 (mouse, UniProt Q9EPU5 42-655)
T3 sequence: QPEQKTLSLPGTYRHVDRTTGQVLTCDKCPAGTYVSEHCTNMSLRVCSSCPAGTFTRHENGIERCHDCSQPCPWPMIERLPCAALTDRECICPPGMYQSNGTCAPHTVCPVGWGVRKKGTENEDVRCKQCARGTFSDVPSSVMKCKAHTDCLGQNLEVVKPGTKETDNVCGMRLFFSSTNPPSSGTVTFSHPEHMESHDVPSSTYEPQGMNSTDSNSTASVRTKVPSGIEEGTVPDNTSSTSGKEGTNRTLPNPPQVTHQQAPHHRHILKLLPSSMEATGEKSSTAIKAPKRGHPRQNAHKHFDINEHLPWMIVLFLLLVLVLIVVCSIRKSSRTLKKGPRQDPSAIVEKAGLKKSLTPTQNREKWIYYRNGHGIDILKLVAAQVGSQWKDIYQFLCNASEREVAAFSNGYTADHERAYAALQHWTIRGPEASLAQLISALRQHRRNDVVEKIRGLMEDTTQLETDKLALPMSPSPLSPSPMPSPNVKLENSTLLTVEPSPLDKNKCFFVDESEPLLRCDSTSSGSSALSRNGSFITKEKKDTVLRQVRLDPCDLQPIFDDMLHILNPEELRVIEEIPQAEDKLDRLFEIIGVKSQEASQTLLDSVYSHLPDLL


Columns and labels:
rat DR6 [1] = target: T1, rat DR6; assay: FACS direct binding on transiently transfected HEK293 cells
Description: (§1) The apparent Kd of 5D10 and M53-E04 for rat and human DR6 was estimated using transiently transfected HEK293 cells in a FACS direct binding assay. Approximately 50,000 cells in 150 uL of PBS, 1% BSA, 0.1% NaN3 (FACS buffer) were analyzed. Cells were pelleted and resuspended in 150 uL of serial dilutions of the antibodies in FACS buffer. Samples were incubated for 1 hr on ice with occasional agitation and then washed 3 times. Bound antibodies were visualized with PE-labeled goat F(ab)2 anti-human or anti-mouse Fab specific antibody (Jackson Labs).
(§2) The binding affinities of 5D10 or M53-E04 to cyno monkey DR6 were similar to human DR6. A single point mutation (Y93A) was introduced to 5D10 based on the co-crystal structure of DR6-5D10 (FIG. 6).

[2] = target: T2, human DR6 (Death Receptor-6, TNFRSF21); assay: as above
Description: as §1, §2

mouse DR6 = target: T3, mouse DR6; assay: flow cytometry on HEK293 cells transfected with full length DR6
Description: Six million HEK293 cells were transfected with 10 ug of plasmid DNA, which encoded full length human, rat, or mouse DR6. Three days after transfection, approximately 50,000 cells in 200 μL of PBS, 1% BSA, 0.1% NaN3 (FACS buffer) were analyzed. Cells were pelleted and resuspended in 150 μL of serial dilutions of anti-DR6 antibodies in FACS buffer. Samples were incubated for 1 hour on ice with occasional agitation and then washed three times. Bound DR6 antibody was visualized with PE-labeled goat F(ab)₂ anti-human Fab (for Dyax Fabs) or anti-mouse IgG specific antibody (for monoclonal antibodies) (Jackson Labs). […] Although both antibodies bind to DR6, the EO4 antibody leads to cell death, whereas 5D10 promotes cell survival. FIG. 5B.

[3] = target: T2, human DR6 (Death Receptor-6, TNFRSF21); assay: cell-based or functional assay
rat DR6 [4] = target: T1, rat DR6; assay: binding to rat DR6 (FIG. 6)

Row | EC50 (rat DR6 [1]) [nM] | binding result (mouse DR6) | binding result (rat DR6 [4]) | Binder | EC50 [2] [nM] | motor neuron survival following sodium arsenite treatment (cell number) [3] [fold]
1 | 0.1 | binds |  | M53-E04 (Fab, V domains shown, The format in the assay (Fab or full IgG) is therefore not certain; also called EO4 antibody; E04 mAb) VH: EVQLLESGGGLVQPGGSLRLSCAASGFTFSNYEMSWVRQAPGKGLEWVSSIYSSGGETLYADSVKGRFTISRDNSKNTLYLQMNSLRAEDTAVYYCARDGAADYWGQGTLVTVSS VL: QSELTQPPSASGTPGQWVTISCSGSTSNIGNNYVYWYQQLPGTAPKLLIYTNNQRPSGVPDRFSGSKSGTSASLAISGLRSEDEADYYCATWDDSLYAPVFGGGTKVTVL | 0.05 | 
2 | 60 | binds |  | 1P5D10.2 (antibody, V domains shown, Murine monoclonal antibody from a hybridoma; also called DR6 antagonist monoclonal antibody 5D10; anti-DR6 antibody 5D10) VH: EVQLVESGGGLVKPGGSLKLSCAASGFTFSDYYMYWVRQTPEKRLEWVATISDGGLYTYYQDSVKGRFTISRDNAKNNLYLQMSSLKSEDTAMYYCAREDDYDGDFYTMDYWGQGTSVTVSS VL: QIVLTQSPAIMSASPGEKVTITCSASSSVSYMHWFQQKPGTSPKLWIYSTSNLASGVPARFSGSGSGTSYSLTISRMEAEDAATYYCQQRSSYPLTFGAGTKLELK | 0.1 | 3
3 |  |  | binds | 1P5D10.2(Y93A) (antibody, V domains shown, Single point mutant (Y93A, light chain variable domain) of 5D10; also called 5D10Y93A) VH: EVQLVESGGGLVKPGGSLKLSCAASGFTFSDYYMYWVRQTPEKRLEWVATISDGGLYTYYQDSVKGRFTISRDNAKNNLYLQMSSLKSEDTAMYYCAREDDYDGDFYTMDYWGQGTSVTVSS VL: QIVLTQSPAIMSASPGEKVTITCSASSSVSYMHWFQQKPGTSPKLWIYSTSNLASGVPARFSGSGSGTSYSLTISRMEAEDAATYYCQQRSSAPLTFGAGTKLELK |  | 
